Assay results reported in the domain aggregation screens of Martell et al. (2025).

Assay: soluble fraction after stress (log2 fold change); higher = more stays soluble; pooled small domains, quantitative proteomics
Conditions: stress: pH 4
Method in brief: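 Aggregation propensity is read out as the fold change in how much of each domain remains soluble after acid stress. The custom small-domain libraries were pooled, held at pH 4 and analysed with high-throughput quantitative proteomics. On the log2 scale used, higher values mean more of the domain stayed soluble.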

HMKVGEIIKAKREELKIPLVNFAKELDISQGYLSQIENGIKTNPNLDIILKIIHRLDIDLAMLL
soluble fraction (log2): -1.02

HMGDFLLQVDFPPALLEMLPEGKRQAAIGVLSHDPRPAYQRTPGRVYGLNFAGHNIRFAVSENLLTVLEV
soluble fraction (log2): -0.302

HMNVAELIEGHEAEIAEVLKEFSLLYLMRLADELGEMTKSSSGNGPFQVLKGLVYEEIARRG
soluble fraction (log2): -0.416

HMNKVDEEKNAELVSTIQNKFSDVSAATKKKVKAFMAEHDIPNFKNADEIPTANLEAIVAMLNED
soluble fraction (log2): 0.22

HMSSVRDNGDLELVPGDRIRHDDYGEGRVTAVTGVGSKRIAHAVFDSVGERKLLIKLSPIEKI
soluble fraction (log2): 0.235

HMSNTVEDLIDDIGTVTKDSKDKIDAARKAYDGLTEDQKKLVPDSVLKTLTDAEAAYAKLTK
soluble fraction (log2): 0.191

HMTELSLSEQAYQQLRRMIVRLDFAPGDVLREEALQEALGMSRTPIREALQRLAREHFVTVIPRRGMFVS
soluble fraction (log2): -1.22

HMTIPNGTVVNGTVLEAREAGAYLVRVAGQTLTAQANLPLLVGQHFRAVWDSSGDIPVLRLSDAEQALLGK
soluble fraction (log2): -0.121

HMGVDIAEHDGQPAVSIRKGAAESVAQWVKDQGGTFPQEVEMTVQNVARAGGTPLVVARGRDVLGVIYLKD
soluble fraction (log2): -0.281

HMFAGEWKQDASGWWYQNDDGSFTRNGWQNISGKQYYFNENGYMLHDTTTPDGKQVGSDGSLV
soluble fraction (log2): -0.389

HMGASIQITVNNTPVMLKNKTHYTLVDVLDFYPFDLSKMGGTELYTAINGVKSGFTDPVHANDSIEIYWI
soluble fraction (log2): 0.196

HMSSSLDQLTVREREILAQVSRGLSNKAIARELGISHDTVKLHVRHILSKLGFSSRVEAAVFAIEHRIG
soluble fraction (log2): -0.481

HMVSIGSQVAKRRRELRLTQQNLAEKMGVSFQAISSWEREEFLPDINKLQKLAAILNTKISYLLEE
soluble fraction (log2): -0.538

HMSGAQIQQLLESRAPQPGMNPDMIVRRKTYMNNVFNALKGALLRVANGSSPEEVKTEVDAAIQVDPDKL
soluble fraction (log2): -0.151

HMPDPVHAAYLRLAVLLTEQAIGPQVTEQQIRDRFALTRRQTSDLMGRLIREGIAEKRAGYGWNINTELTA
soluble fraction (log2): -0.748

HMIDVGSKIRSLRKSKNISISTLAKNSDLSTGLISQIERNMVVPSIVAMWKISKALDINIGYFFE
soluble fraction (log2): -0.109

HMSNHYETLGVEQTASVDEIKKAYRRLSLQYHPDRNTTSDAVGKFQKINDAHEILSDKQSRTEYDMQLK
soluble fraction (log2): 0.0857

HMEFGEVLAQLRQKRHISQAELGRAIFVSGGTISNYEKGVHFPDVEKLLLLADYFNVTTDYLLGRT
soluble fraction (log2): -0.169

HMVDDTGLPTVLISDGRLLERNLHRLHLDHTWLQRRLEENNIPSIQSLFLLTVDKQHQLYFLKK
soluble fraction (log2): -0.277

HMSTNDIFISGDKLVLKNTTGQMDVFDMAGRKVLSSTNNVSEMNVSSLPKGVYVVSASIGGSKMKAKVYK
soluble fraction (log2): 0.0276

HMIMTTKVSGIMFDKFNPSAILNINGMDYLVRSGDIINGYKILSIGQETVTVQYGANVYKASVG
soluble fraction (log2): -0.603

HMIKLTVRQQEILDLIARSIDQTGFPPTRAEIAAELGFKSVNAAEEHLQALARKGVIEMVPGISRGIRLVQ
soluble fraction (log2): -0.306

HMHPRDREENKYLLLRGERIYEESIGEKRLYVEAALHKYEKALSSYDTGLIDEAKEEFKKFLEEIEEA
soluble fraction (log2): -0.438

HMADEEEIMVPQVVGKTYDEAKSELENAGFKVEKNEKTSDKASGTVISQSINGGAKKGTSVTLTVSKGN
soluble fraction (log2): 0.132

HMNADRIVGQTAKVIHPITPDEKGRVMVDNLDWAAAAQNRGESFEVGEEVSIVRIEGVTVYVQK
soluble fraction (log2): -0.57

HMEVSEGEIREKVESVFSSNPRQAYNYKQISKKLNINDKSERQIVWDVLRKLAGSGKIQEVEHGRFRARAE
soluble fraction (log2): -0.0385

HMFQNPSQVVTTRVGELRAAIPTAQQGRITMGVAVVEDANSVRSVLISTSEPRGYLRPGVTLGPGETMV
soluble fraction (log2): 0.106

HMRKTLSQEAYEKIKQNLEDGVYQGYINGRQVARDLDIGFTPVREAFLQLQSEGLIRKEDNVGYFV
soluble fraction (log2): -0.183

HMDSDELEAFRLITSVNGVGPKLGIAILSEFTAEKLTVFIASGDAKALTAASGVGIKLAQRIVLELKDKVG
soluble fraction (log2): -0.184

HMEETLLLRESVRSALAMLAPTLRITLEMYVYRQLSPTEIALRSGVSISMVRRRLGYGLYKLRTQLIDA
soluble fraction (log2): -0.394

HMPLDKDTTLDEIYRRFNMEHPADYKGHSLSMGDIVVFRQDGKQTAYYVDEGADYRQVPEFFVK
soluble fraction (log2): -0.173

HMRDPVDKDNYLGDWDKNKTYPAGYVMTFGDKNYLALQEVPAGTKPGATDPDPFWVLDTGKTLKD
soluble fraction (log2): 0.163

HMRIDVWLAENGFAPSRQKAQDLIAAGRVFQTDPSGRRQKVSKASAAVDPALSPKIEVIPDPE
soluble fraction (log2): 0.068

HMEHIVNELDRKVIDYLQSHYDAKLNDIAQGIGVSKATATKSIRKLVQTGIVHVVGSSGTGTSYNLTE
soluble fraction (log2): 0.0867

HMRSFADEGTVEEWIKQAIRENEAAVADYRKGKETAVKFLMGQVMRLSKGEANPADLEDKIKAKLD
soluble fraction (log2): 0.025

HMQYTTDEVRERVLSVLNQLLLRWIVREGKDMFNIQANAVEISEGIKGELNTELEKIGLAATGFQIDSV
soluble fraction (log2): -0.678

HMFEDYNELDEYLETRFIPTYVLLKQRKNANGEIDHFPSIRLQHIMALKLSEAELEHVMNYLKEKNIRVG
soluble fraction (log2): -0.182

HMSNETKSAILNFAEKHHDFNIDDLFESLSKSMDINRSSLLWHLFKLVNSNVLIRTGRGMYAKV
soluble fraction (log2): -0.839
